Columns and labels:
[1] = Thermal stability by Differential Scanning Calorimetry; assay type: physicochemical; details: DSC; Fab 1 mg/ml
Description: Thermal stability analysis was performed with UNchained Labs UNcle™/Tagg analysis with Fabs at a concentration of 20 uM with or without Compound A at a concentration of 50 uM (or control compound). Capillaries were scanned from 25 to 90° C. at 0.5° C./min. In addition, select Fabs were also analyzed by Differential Scanning calorimetry analysis using the Malvern MicroCal VP-Capillary DSC. Samples were buffer matched and loaded with Fabs at a concentration of 10 uM with or without Compound A at a concentration of 15 uM (or control compound). Scan temperature range was 15-110° C. at a rate of 60° C./Hr (Filter period: 16 sec, Gain: None). Sample analysis was using software provided by the manufacturer for both the UNcle and the Malvern Capillary DSC. FIG. 15 and Table 14 below show representative DSC results.

[2] = Kinetic Exclusion Assay (KinExA) solution affinity; assay type: binding; details: for KinExA Ka: complex association rate, 200 pM Fab and 400 pM Compound A; for Kd: solution affinity for Compound A, Fab 100, 200, 300 pM, equilibrated 24-72 hours
Description: The solution affinity of the antibody Fab fragments disclosed herein for Compound A was measured using a Kinetic Exclusion Assay (KinExA). […] The relative unbound concentration of 26D5 affinity matured antibody Fab fragment was measured by capture on a streptavidin coated bead with COMPOUND 5 followed by detection with a fluorescently labeled antibody that recognizes the human IgG Fab. Kinetic analysis to determine the complex association rate was measured with the same assay format except that a single tube of the mixture was prepared (200 pM Fab and 400 pM Compound A) and time points were removed immediately (no equilibration). Two Fabs, 26D5-75229-343-A10-Fab-SHORT and 26D5-75616-348-F10-Fab-SHORT, were identified as the top two Fabs by DSC thermal stability and KinExA analysis. Antibody Fab fragment 26D5-75616-348-F10-Fab-SHORT (SEQ ID NO: 106 and SEQ ID NO: 164; see Table 3) was selected for X-ray crystallography as described below and in vivo studies as described in Example 12.

| Kd [2] [nM] | Molecule | Tm1 (° C.) [1] [°C] | KinExA Ka [2] [M⁻¹ s⁻¹] | Tm2 (° C.) [1] [°C] |
| --- | --- | --- | --- | --- |
| 0.01 | 26D5-75203-343-B09-Fab-SHORT: antibody Fab fragment; VH SEQ ID NO: 54, VL SEQ ID NO: 87; sequence in Table 3 (antibody, V domains shown) VH: EVQLVESGGGLIQPGGSLRLSCAASGFTVSSNAMSWVRQAPGKGLEWVSYIYPGGRTYYADSVKGRFTISRDNSKNTLYLQMNSLRAEDTAVYYCARAGFGGGDYWGQGTLVTVSS VL: DIQMTQSPSSVSASVGDRVTITCRASQGISSNLAWYQQKPGKAPKLLIYAASTLQSGVPSRFSGSGSGTDFTLTISSLQPEDFATYYCQQANEFPLTFGGGTKVEIK | 76.6 | 14000 | – |
| – | 26D5-75768-348-A10-Fab-SHORT: antibody Fab fragment; VH SEQ ID NO: 56, VL SEQ ID NO: 89; sequence in Table 3 (antibody, V domains shown) VH: EVQLVESGGGLIQPGGSLRLSCAASGFTVSSNAVSIVRQAPGKGLEWVAYIYPGGRTYYADSVKGRFTISRDNSKNTLYLQMNSLRAEDTAVYYCTIGGFGGGDYWGQGTLVTVSS VL: DIQMTQSPSSVSASVGDRVTITCRASQGISSNNQWYQQKPGKAPKLLIYYASSLQSGVPSRFSGSGSGTDFTLTISSLQPEDFATYYCQQGNEFPLTFGGGTKVEIK | 66.3 | – | 74.1 |
| – | 26D5-75229-343-A10-Fab-SHORT: antibody Fab fragment; VH SEQ ID NO: 52, VL SEQ ID NO: 84; sequence in Table 3 (antibody, V domains shown) VH: EVQLVESGGGLIQPGGSLRLSCAASGFTVSSNAMSWVRQAPGKGLEWVSYIYPGGRTYYADSVKGRFTISRDNSKNTLYLQMNSLRAEDTAVYYCARAGFGGPDYWGQGTLVTVSS VL: DIQMTQSPSSVSASVGDRVTITCRASQGISSNLAWYQQKPGKAPKLLIYAASSLQSGVPSRFSGSGSGTDFTLTISSLQPEDFATYYCQQANQFPLTFGGGTKVEIK | 74.9 | 50000 | – |
| – | 26D5-295-C08-Fab-SHORT: antibody Fab fragment; VH SEQ ID NO: 62, VL SEQ ID NO: 88; sequence in Table 3 (antibody, V domains shown) VH: EVQLVESGGGLIQPGGSLRLSCAASGFQVSSNAMSWVRQAPGKGLEWVSFIYPGGRTYYADSVKGRFTISRDNSKNTLYLQMNSLRAEDTAVYYCARGGFGGGDYWGQGTLVTVSS VL: DIQMTQSPSSVSASVGDRVTITCRASQGISSNLAWYQQKPGKAPKLLIYAASSLQSGVPSRFSGSGSGTDFTLTISSLQPEDFATYYCQQANSFPLTFGGGTKVEIK | 75.3 | – | – |
| 0.019 | 26D5-75202-343-A09-Fab-SHORT: antibody Fab fragment; VH SEQ ID NO: 54, VL SEQ ID NO: 86; sequence in Table 3 (antibody, V domains shown) VH: EVQLVESGGGLIQPGGSLRLSCAASGFTVSSNAMSWVRQAPGKGLEWVSYIYPGGRTYYADSVKGRFTISRDNSKNTLYLQMNSLRAEDTAVYYCARAGFGGGDYWGQGTLVTVSS VL: DIQMTQSPSSVSASVGDRVTITCRASQGIYSNLAWYQQKPGKAPKLLIYAASSLQSGVPSRFSGSGSGTDFTLTISSLQPEDFATYYCQQANEFPLTFGGGTKVEIK | 75.3 | 150000 | – |
| 0.015 | 26D5-75214-343-F06-Fab-SHORT: antibody Fab fragment; VH SEQ ID NO: 53, VL SEQ ID NO: 85; sequence in Table 3 (antibody, V domains shown) VH: EVQLVESGGGLIQPGGSLRLSCAASGFTVSSNAMSWVRQAPGKGLEWVSFIYPGGRTYYADSVKGRFTISRDNSKNTLYLQMNSLRAEDTAVYYCARAGFGGPDYWGQGTLVTVSS VL: DIQMTQSPSSVSASVGDRVTITCRASQGISSNLAWYQQKPGKAPKLLIYAASSLQSGVPSRFSGSGSGTDFTLTISSLQPEDFATYYCQQANEFPLTFGGGTKVEIK | 75.5 | 600000 | – |

— patent US12065505B2, “Antibodies and antigen binding peptides for factor XIa inhibitors and uses thereof” (Bristol-Myers Squibb Company, priority 2021, dated 2024)
